Laboratory results as given in the PETadex activity labels (doi:10.1016/j.bbrc.2024.150833).

Substrate: pNPB
Experiment: Proxy for plastic degradation [Absorbance @ 405nm]

B1: unnamed (protein)
chain: MTDVEIALSTGRVKGTDLGDVVRYYGIPYAEDPVGDLRFAAPVRREPWPGVRDATRPAATAQRLRFDPDPAIPEPIVAGTDILHVDVWAPTEGAGHPVLVWIHGGGWESGSSHQPWFVGTAFARAGIVVVSVGYRLGVEGFTAFPDAPDNRGVRDWIMALEWVRDEIAAFGGDPGQVTVSGQSAGGGAVLCLLASPLAAGLFHRGIASSPAVLRSPAAQAPKGTTAAGLAAGGRGAVDEFHRRLRKDNPFLMPFRPTVGDDTVPVPPLEGIGSGPGLDLPLLIGSTATEFEGVVRALPGAALVPGAAMILRSQELPTTGLRALARQSAGKSLRRAVGAVVDAATIHSTVVRAAETRVAAGAPTWVYDFRWSEGRGAVHCADLPFFWSVPEAANVRAYLGADAPPGLVDAMHRSWVDFVRSGDPGSPPYAPPGRRVQVWDEPPAVVEDGLADVRAVWWPAGGS
pH 5
  Proxy for plastic degradation: 10.3 U/mg
pH 5.5
  Proxy for plastic degradation: 15.4 U/mg
pH 6
  Proxy for plastic degradation: 41.1 U/mg
pH 6.5
  Proxy for plastic degradation: 61.7 U/mg
pH 7
  Proxy for plastic degradation: 72 U/mg
pH 7.5
  Proxy for plastic degradation: 77.1 U/mg
pH 8, 10 °C
  Proxy for plastic degradation: 36 U/mg
pH 8, 20 °C
  Proxy for plastic degradation: 46.3 U/mg
pH 8, 25 °C
  Proxy for plastic degradation: 77.1 U/mg
pH 8, 30 °C
  Proxy for plastic degradation: 92.6 U/mg
pH 8, 37 °C
  Proxy for plastic degradation: 103 U/mg
pH 8, 40 °C
  Proxy for plastic degradation: 84.9 U/mg
pH 8, 50 °C
  Proxy for plastic degradation: 59.7 U/mg
pH 8, 60 °C
  Proxy for plastic degradation: 20.6 U/mg
pH 8, 70 °C
  Proxy for plastic degradation: 10.3 U/mg
pH 8.5
  Proxy for plastic degradation: 92.6 U/mg
pH 9
  Proxy for plastic degradation: 87.4 U/mg
